Assay [1] has as its target T1, recombinant mature myostatin (human, produced in E. coli) (human, UniProt O14793 267-375).
T1 sequence (looked up): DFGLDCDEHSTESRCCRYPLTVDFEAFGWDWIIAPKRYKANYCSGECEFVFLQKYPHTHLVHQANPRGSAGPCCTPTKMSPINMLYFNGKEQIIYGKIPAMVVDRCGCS
The assay is described as follows: cell-based or functional assay.

For assay [2], the target named is T1, recombinant mature myostatin (human, …). The assay is described as follows: KinExA solution based assay or BIAcore assay (not said which). For orientation: A kinetic exclusion assay measures how much of one partner remains free in solution.
For assay [3] the target is unchanged. The assay is described as follows: cell-based or functional assay. This is another data set of the same source.

Where a chain is given by its changes, count along the chain named.

For orientation: Kd means the free concentration of one partner at which half of the binding sites on the other are occupied at equilibrium, for simple one-to-one binding.

B1: recombinant human activin receptor IIB/Fc chimera (R&D Systems) (Fc fusion, UniProt Q13705 19-134, looked up, not shown: a dimerising Fc or GST)
chain: SGRGEAETRECIYYNANWELERTNQSGLERCEGEQDKRLHCYASWRNSSGTIELVKKGCWLDDFNCYDRQECVATEENPQVYFCCCEGNFCNERFTHLPEAGGPEVTYEPPPTAPT
As to B1, in assay [1], the “IC50 (nM), C2C12 pMARE-luc myostatin activity assay” value is approximately 83 nM.

B2: 2x mTN8-19-21 peptibody (Fc fusion)
chain: GGGGGAQSEYQGLCTRWPWMCPPQGWKLEGSGSATGGSGSTASSGSGSATGSEYQGLCTRWPWMCPPQGWKLE
notes: Human Fc form
For B2, in assay [2], the Kd was found to be 6 pM.

B3: 2x mTN8-19-33 peptibody (Fc fusion)
chain: B2 chain with S8P, Y10S, L13H, K27G, S52P, Y54S, L57H, K71G
As to B3, in assay [2], the Kd worked out at 3 pM.

B4: 2x mTN8-19-7 peptibody (Fc fusion)
chain: GGGGGAQLADHGQCIRWPWMCPPEGWELEGSGSATGGSGSTASSGSGSATGLADHGQCIRWPWMCPPEGWELE
For the molecule B4, in assay [2], the Kd came to 12 pM.

B5: TN8-19 peptide (peptide)
peptide: QGHCTRWPWMCPPY
B5: the “IC50 (read off the curve); luciferase activity, C2C12 pMARE-luc reporter cells, 4 nM myostatin” value in assay [3] was approximately 20000 nM.

The values are drawn from patent publication US20140294866A1 (Amgen, published 2014).
